Target: the molecule itself
Assay: 2-D nonreducing/reducing SDS-PAGE

Row | Protein | stoichiometry N
1 | CD3 eta (transfected cDNA) (natural protein, murine, UniProt P24161-2 22-206, looked up) QSFGLLDPKLCYLLDGILFIYGVIITALYLRAKFSRSAETAANLQDPNQLYNELNLGRREEYDVLEKKRARDPEMGGKQQRRRNPQEGVYNALQKDKMAEAYSEIGTKGERRRGKGHDGLYQDSHFQAVQFGNRREREGSELTRTLGLRARPKGESTQQSSQSCASVFSIPTLWSPWPPSSSSQL | 2
2 | CD3 zeta (transfected cDNA) (natural protein, murine, UniProt P24161-1 22-164, looked up) QSFGLLDPKLCYLLDGILFIYGVIITALYLRAKFSRSAETAANLQDPNQLYNELNLGRREEYDVLEKKRARDPEMGGKQQRRRNPQEGVYNALQKDKMAEAYSEIGTKGERRRGKGHDGLYQGLSTATKDTYDALHMQTLAPR | 2
3 | CD3 zeta (endogenous) (natural protein, murine, UniProt P24161-1 22-164, looked up) QSFGLLDPKLCYLLDGILFIYGVIITALYLRAKFSRSAETAANLQDPNQLYNELNLGRREEYDVLEKKRARDPEMGGKQQRRRNPQEGVYNALQKDKMAEAYSEIGTKGERRRGKGHDGLYQGLSTATKDTYDALHMQTLAPR | 2

Source: PMC2188614 (The Journal of Experimental Medicine, 1990)
